Results as given in patent US10711041B2, “Lyophilisate containing a cyclic peptide of formula X1-[sequence]-X2” (priority 2013, dated 2020).
“Also recorded” adds a separate entry of the source. Bridges are numbered along the chain shown (N, C = ends). Where no end group is shown, it is not given here.

Biological target: T1, amilorid-sensitive Sodium Ion Channel (ENaC) (Homo sapiens, UniProt P37088)
T1 construct: Macroscopic Sodium Ion Currents were derived from human lung epithelian cells A549; endogenous in cells; host or cells: A549 human lung epithelial cells
T1 sequence (P37088 1-669): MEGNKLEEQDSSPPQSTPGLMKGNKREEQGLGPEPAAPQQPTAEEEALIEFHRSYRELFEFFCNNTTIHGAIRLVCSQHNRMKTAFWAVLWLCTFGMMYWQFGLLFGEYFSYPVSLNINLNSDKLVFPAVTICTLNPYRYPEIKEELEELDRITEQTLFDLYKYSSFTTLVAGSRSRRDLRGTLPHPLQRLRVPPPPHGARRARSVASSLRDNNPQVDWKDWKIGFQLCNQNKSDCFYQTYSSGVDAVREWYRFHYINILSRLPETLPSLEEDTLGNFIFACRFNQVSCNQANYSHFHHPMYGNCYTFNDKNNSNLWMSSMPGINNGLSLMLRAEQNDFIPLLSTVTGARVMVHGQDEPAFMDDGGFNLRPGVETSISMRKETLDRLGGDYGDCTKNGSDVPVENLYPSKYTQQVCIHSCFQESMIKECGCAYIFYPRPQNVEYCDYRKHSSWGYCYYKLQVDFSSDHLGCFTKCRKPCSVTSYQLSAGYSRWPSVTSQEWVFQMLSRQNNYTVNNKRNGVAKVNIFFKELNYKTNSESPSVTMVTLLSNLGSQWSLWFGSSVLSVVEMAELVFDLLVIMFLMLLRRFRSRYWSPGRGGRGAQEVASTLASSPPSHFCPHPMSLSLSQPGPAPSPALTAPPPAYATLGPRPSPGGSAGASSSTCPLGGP
T1 sequence (P51168 1-640 partner): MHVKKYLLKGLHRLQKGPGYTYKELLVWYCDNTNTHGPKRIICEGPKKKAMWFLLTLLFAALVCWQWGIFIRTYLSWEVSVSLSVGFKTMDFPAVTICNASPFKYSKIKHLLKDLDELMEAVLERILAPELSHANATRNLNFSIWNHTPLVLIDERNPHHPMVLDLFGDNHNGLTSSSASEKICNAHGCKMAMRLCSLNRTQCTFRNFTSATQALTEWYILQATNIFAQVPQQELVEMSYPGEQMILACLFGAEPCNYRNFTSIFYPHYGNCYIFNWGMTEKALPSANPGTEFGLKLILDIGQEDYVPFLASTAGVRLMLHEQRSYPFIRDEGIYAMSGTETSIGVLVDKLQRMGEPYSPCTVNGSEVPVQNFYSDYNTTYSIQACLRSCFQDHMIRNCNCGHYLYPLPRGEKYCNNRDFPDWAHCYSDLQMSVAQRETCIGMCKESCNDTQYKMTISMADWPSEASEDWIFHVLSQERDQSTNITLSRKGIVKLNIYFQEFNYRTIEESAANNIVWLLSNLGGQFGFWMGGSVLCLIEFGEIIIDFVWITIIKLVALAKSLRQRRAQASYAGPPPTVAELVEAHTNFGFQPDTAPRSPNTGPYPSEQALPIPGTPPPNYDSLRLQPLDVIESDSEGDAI
T1 sequence (P51170 1-649 partner): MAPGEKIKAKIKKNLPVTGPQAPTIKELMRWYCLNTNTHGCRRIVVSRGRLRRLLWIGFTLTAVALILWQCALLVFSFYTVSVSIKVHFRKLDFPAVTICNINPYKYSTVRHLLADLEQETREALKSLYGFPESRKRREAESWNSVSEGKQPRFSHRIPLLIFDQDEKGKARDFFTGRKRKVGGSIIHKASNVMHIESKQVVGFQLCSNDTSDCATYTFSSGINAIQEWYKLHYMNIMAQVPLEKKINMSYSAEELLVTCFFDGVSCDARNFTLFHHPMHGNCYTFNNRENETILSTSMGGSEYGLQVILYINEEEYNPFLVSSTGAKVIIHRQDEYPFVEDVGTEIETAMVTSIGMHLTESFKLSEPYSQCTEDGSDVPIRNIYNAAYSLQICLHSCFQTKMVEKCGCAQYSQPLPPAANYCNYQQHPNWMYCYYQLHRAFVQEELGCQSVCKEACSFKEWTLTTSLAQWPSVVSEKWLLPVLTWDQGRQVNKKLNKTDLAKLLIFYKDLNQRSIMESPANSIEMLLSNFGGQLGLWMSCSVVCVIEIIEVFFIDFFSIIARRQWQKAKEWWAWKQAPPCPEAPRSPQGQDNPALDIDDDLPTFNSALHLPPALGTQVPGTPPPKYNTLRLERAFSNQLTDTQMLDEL
Assay: Patch-clamp whole cell, amilorid-sensitive sodium ion current in A549 cells
Type: cell-based
Description: Macroscopic Sodium Ion Currents were derived from human lung epithelian cells A549 in the “whole cell” configuration by means of the “Patch-clamp” technique (Hamill et al, Pflugers Arch. 1981, 391(2):85-100, 1981). For the currents in the “whole cell” configuration the following bath- and electrode solutions were used:
Bath solution: 135 mM sodium methansulfonate, 10 mM NaCl, 2.7 mM KCl, 1.8 mM CaCl2, 2 mM MgCl2, 5.5 mM glucose, and 10 mM HEPES, pH 7.4.
Electrode solution: 120 mM potassium methansulfonate, 15 mM KCl, 6 mM NaCl, 1 mM Mg2ATP, 2 mM Na3ATP, 10 mM HEPES, and 0.5 mM EGTA (pH 7.2).
Cover glasses with thereon cultivated cells were transferred into a 1 ml containing trial bath, fixed onto the microscope table (Axiovert 100, 400-fold enlargement) and the cells were superfunded with the above described bath solution. Subsequent from an appropriate cell (sticking on the cover glass) the current was deduced. […] On receipt of a “Gigaohm-Seal” a defined membrane hold potential was created via a preamplifier (CV-4 Headstag, Axon Instruments) and amplifier (Axopatch 1D, Axon Instr.) and the current which thereby flows through the ion channels is measured.
That protocol was done before (control) and after addition of the cyclic proteins. The thus obtained currents were recorded and analyzed by means of the program PCLAMP 6.0. […]

Substance: Cyclo(CGQREAPAGAAAKPWYC) (disulfide 1-17) [SEQ ID NO: 7, reference compound]
- biological activity (in words) (amilorid-sensitive sodium current): biologically inactive; also recorded: not active
- EC50 (activity on cellular amilorid-sensitive sodium ion current) (whole cell patch clamp): no activity
